US20100169988A1 (published 2010)

B1: Aspartate aminotransferase; cytoplasmic (Transaminase A) (enzyme, mouse, UniProt P05201 2-413, looked up)
chain: APPSVFAQVPQAPPVLVFKLTADFRDDPDPRKVNLGVGAYRTDESQPWVLPVVRKVEQKIANDNSLNHEYLPILGLAEFRSCASRLVLGDNSLAIRENRVGGVQSLGGTGALRIGADFLGRWYNGTDNKNTPIYVSSPTWENHNAVFSAAGFKDIRPYCYWDAEKRGLDLQGFLNDLENAPEFSIFVLHACAHNPTGTDPTPEQWKQIAAVMQRRFLFPFFDSAYQGFASGDLEKDAWAIRYFVSEGFELFCAQSFSKNFGLYNERVGNLTVVGKESDSVLRVLSQMEKIVRITWSNPPAQGARIVAATLSDPELFKEWKGNVKTMADRILTMRSELRARLEALKTPGTWSHITEQIGMFSFTGLNPKQVEYLVNEKHIYLLPSGRINMCGLTTKNLDYVATSIHEAVTKIQ
B2: L-lactate dehydrogenase B chain (LDH-B) (LDH heart subunit) (enzyme)
chain: not shown
B3: ATP synthase gamma chain; mitochondrial precursor (enzyme, mouse, UniProt Q91VR2 26-298, looked up)
chain: ATLKDITRRLKSIKNIQKITKSMKMVAAAKYARAERELKPARVYGTGSLALYEKADIKAPEDKKKHLIIGVSSDRGLCGAIHSSVAKQMKNEVAALTAAGKEVMIVGVGEKIKGILYRTHSDQFLVSFKDVGRKPPTFGDASVIALELLNSGYEFDEGSIIFNQFKSVISYKTEEKPIFSLNTIATAETMSIYDDIDADVLQNYQEYNLANLIYYSLKESTTSEQSARMTAMDNASKNASDMIDKLTLTFNRTRQAVITKELIEIISGAAALD
B4: Clathrin light chain A (Lca) (other, mouse, UniProt O08585 1-235, looked up)
chain: MAELDPFGAPAGAPGGPALGNGVAGAGEEDPAAAFLAQQESEIAGIENDEAFAILDGGAPGRATRRAAGGPDAVDGVMNGEYYQESNGPTDSYAAISEVDRLQSEPESIRKWREEQTERLEALDANSRKQEAEWKEKAIKELEEWYARQDEQLQKTKANNRVADEAFYKQPFADLIGYVAAEEAFVNDIDESSPGTEWERVARLCDFNPKSSKQAKDVSRMRSVLISLKQAPLVH
B5: Alpha enolase (2-phospho-D-glycerate hydro-lyase) (Non-neural enolase) (NNE) (enzyme, mouse, UniProt P17182 2-434, looked up)
chain: SILRIHAREIFDSRGNPTVEVDLYTAKGLFRAAVPSGASTGIYEALELRDNDKTRFMGKGVSQAVEHINKTIAPALVSKKVNVVEQEKIDKLMIEMDGTENKSKFGANAILGVSLAVCKAGAVEKGVPLYRHIADLAGNPEVILPVPAFNVINGGSHAGNKLAMQEFMILPVGASSFREAMRIGAEVYHNLKNVIKEKYGKDATNVGDEGGFAPNILENKEALELLKTAIAKAGYTDQVVIGMDVAASEFYRSGKYDLDFKSPDDPSRYITPDQLADLYKSFVQNYPVVSIEDPFDQDDWGAWQKFTASAGIQVVGDDLTVTNPKRIAKAASEKSCNCLLLKVNQIGSVTESLQACKLAQSNGWGVMVSHRSGETEDTFIADLVVGLCTGQIKTGAPCRSERLAKYNQILRIEEELGSKAKFAGRSFRNPLAK
B6: Synaptotagmin-1 (Synaptotagmin I) (SytI) (p65) (other, mouse, UniProt P46096 1-421, looked up)
chain: MVSASRPEALAAPVTTVATLVPHNATEPASPGEGKEDAFSKLKQKFMNELHKIPLPPWALIAIAIVAVLLVVTCCFCVCKKCLFKKKNKKKGKEKGGKNAINMKDVKDLGKTMKDQALKDDDAETGLTDGEEKEEPKEEEKLGKLQYSLDYDFQNNQLLVGIIQAAELPALDMGGTSDPYVKVFLLPDKKKKFETKVHRKTLNPVFNEQFTFKVPYSELGGKTLVMAVYDFDRFSKHDIIGEFKVPMNTVDFGHVTEEWRDLQSAEKEEQEKLGDICFSLRYVPTAGKLTVVILEAKNLKKMDVGGLSDPYVKIHLMQNGKRLKKKKTTIKKNTLNPYYNESFSFEVPFEQIQKVQVVVTVLDYDKIGKNDAIGKVFVGYNSTGAELRHWSDMLANPRRPIAQWHTLQVEEEVDAMLAVKK
notes: also called SYT1_MOUSE
B7: Vacuolar ATP synthase catalytic subunit A; ubiquitous isoform (enzyme)
chain: MDFSKLPKIRDEDKESTFGYVHGVSGPVVTACDMAGAAMYELVRVGHSELVGEIIRLEGDMATIQVYEETSGVSVGDPVLRTGKPLSVELGPGIMGAIFDGIQRPLSDISSQTQSIYIPRGVNVSALSRDIKWEFIPSKNLRVGSHITGGDIYGIVNENSLIKHKIMLPPRNRGSVTYIAPPGNYDASDVVLELEFEGVKEKFSMVQVWPVRQVRPVTEKLPANHPLLTGQRVLDALFPCVQGGTTAIPGAFGCGKTVISQSLSKYSNSDVIIYVGCGERGNEMSEVLRDFPELTMEVDGKVESIMKRTALVANTSNMPVAAREASIYTGITLSEYFRDMGYHVSMMADSTSRWAEALREISGRLAEMPADSGYPAYLGARLASFYERAGRVKCLGNPEREGSVSIVGAVSPPGGDFSDPVTSATLGIVQVFWGLDKKLAQRKHFPSVNWLISYSKYMRALDEYYDKHFTEFVPLRTKAKEILQEEEDLAEIVQLVGKASLAETDKITLEVAKLIKDDFLQQNGYTPYDRFCPFYKTVGMLSNMISFYDMARRAVETTAQSDNKITWSIIREHMGEILYKLSSMKFKDPVKDGEAKIKADYAQLLEDMQNAFRSLED
notes: also called VATA1_MOUSE
B8: Fructose-bisphosphate aldolase C (Brain-type aldolase) (Aldolase 3) (enzyme, mouse, UniProt P05063 2-363, looked up)
chain: PHSYPALSAEQKKELSDIALRIVTPGKGILAADESVGSMAKRLSQIGVENTEENRRLYRQVLFSADDRVKKCIGGVIFFHETLYQKDDNGVPFVRTIQDKGILVGIKVDKGVVPLAGTDGETTTQGLDGLLERCAQYKKDGADFAKWRCVLKISDRTPSALAILENANVLARYASICQQNGIVPIVEPEILPDGDHDLKRCQYVTEKVLAAVYKALSDHHVYLEGTLLKPNMVTPGHACPIKYSPEEIAMATVTALRRTVPPAVPGVTFLSGGQSEEEASLNLNAINRCPLPRPWALTFSYGRALQASALNAWRGQRDNAGAATEEFIKRAEMNGLAAQGRYEGSGDGGAAAQSLYIANHAY
B9: Glutamine synthetase (Glutamate-ammonia ligase) (enzyme, mouse, UniProt P15105 2-373, looked up)
chain: ATSASSHLNKGIKQMYMSLPQGEKVQAMYIWVDGTGEGLRCKTRTLDCEPKCVEELPEWNFDGSSTFQSEGSNSDMYLHPVAMFRDPFRKDPNKLVLCEVFKYNRKPAETNLRHICKRIMDMVSNQHPWFGMEQEYTLMGTDGHPFGWPSNGFPGPQGPYYCGVGADKAYGRDIVEAHYRACLYAGVKITGTNAEVMPAQWEFQIGPCEGIRMGDHLWIARFILHRVCEDFGVIATFDPKPIPGNWNGAGCHTNFSTKAMREENGLKCIEEAIDKLSKRHQYHIRAYDPKGGLDNARRLTGFHETSNINDFSAGVANRGASIRIPRTVGQEKKGYFEDRRPSANCDPYAVTEAIVRTCLLNETGDEPFQYKN
B10: Aspartate aminotransferase; mitochondrial precursor (Transaminase A) (enzyme, mouse, UniProt P05202 30-430, looked up)
chain: SSWWTHVEMGPPDPILGVTEAFKRDTNSKKMNLGVGAYRDDNGKPYVLPSVRKAEAQIAAKNLDKEYLPIGGLAEFCKASAELALGENNEVLKSGRFVTVQTISGTGALRVGASFLQRFFKFSRDVFLPKPSWGNHTPIFRDAGMQLQGYRYYDPKTCGFDFSGALEDISKIPEQSVLLLHACAHNPTGVDPRPEQWKEIASVVKKKNLFAFFDMAYQGFASGDGDKDAWAVRHFIEQGINVCLCQSYAKNMGLYGERVGAFTVVCKDAEEAKRVESQLKILIRPLYSNPPLNGARIAATILTSPDLRKQWLQEVKGMADRIISMRTQLVSNLKKEGSSHNWQHITDQIGMFCFTGLKPEQVERLTKEFSVYMTKDGRISVAGVTSGNVGYLAHAIHQVTK
B11: ATP synthase alpha chain; mitochondrial precursor (enzyme, mouse, UniProt Q03265 44-553, looked up)
chain: QKTGTAEMSSILEERILGADTSVDLEETGRVLSIGDGIARVHGLRNVQAEEMVEFSSGLKGMSLNLEPDNVGVVVFGNDKLIKEGDVVKRTGAIVDVPVGEELLGRVVDALGNAIDGKGPIGSKTRRRVGLKAPGIIPRISVREPMQTGIKAVDSLVPIGRGQRELIIGDRQTGKTSIAIDTIINQKRFNDGTDEKKKLYCIYVAIGQKRSTVAQLVKRLTDADAMKYTIVVSATASDAAPLQYLAPYSGCSMGEYFRDNGKHALIIYDDLSKQAVAYRQMSLLLRRPPGREAYPGDVFYLHSRLLERAAKMNDSFGGGSLTALPVIETQAGDVSAYIPTNVISITDGQIFLETELFYKGIRPAINVGLSVSRVGSAAQTRAMKQVAGTMKLELAQYREVAAFAQFGSDLDAATQQLLSRGVRLTELLKQGQYSPMAIEEQVAVIYAGVRGYLDKLEPSKITKFENAFLSHVISQHQSLLGNIRSDGKISEQSDAKLKEIVTNFLAGFEP
B12: Tubulin beta-4 chain (other, mouse, UniProt Q9D6F9 1-444, looked up)
chain: MREIVHLQAGQCGNQIGAKFWEVISDEHGIDPTGTYHGDSDLQLERINVYYNEATGGNYVPRAVLVDLEPGTMDSVRSGPFGQIFRPDNFVFGQSGAGNNWAKGHYTEGAELVDAVLDVVRKEAESCDCLQGFQLTHSLGGGTGSGMGTLLISKIREEFPDRIMNTFSVVPSPKVSDTVVEPYNATLSVHQLVENTDETYCIDNEALYDICFRTLKLTTPTYGDLNHLVSATMSGVTTCLRFPGQLNADLRKLAVNMVPFPRLHFFMPGFAPLTSRGSQQYRALTVPELTQQMFDAKNMMAACDPRHGRYLTVAAVFRGRMSMKEVDEQMLSVQSKNSSYFVEWIPNNVKTAVCDIPPRGLKMAATFIGNSTAIQELFKRISEQFTAMFRRKAFLHWYTGEGMDEMEFTEAESNMNDLVSEYQQYQDATAEEGEFEEEAEEEVA
notes: also called TBB4_MOUSE
B13: Excitatory amino acid transporter 1 (Sodium-dependent glutamate/aspartate transporter) (GLAST) (other, mouse, UniProt P56564 1-543, looked up)
chain: MTKSNGEEPRMGGRMERLQQGVRKRTLLAKKKVQSLTKEDVKSYLFRNAFVLLTVTAVIVGTILGFALRPYKMSYREVKYFSFPGELLMRMLQMLVLPLIISSLVTGMAALDSKASGKMGMRAVVYYMTTTIIAVVIGIIIVIIIHPGKGTKENMYREGKIVQVTAADAFLDLIRNMFPPNLVEACFKQFKTSYEKRSFKVPIQSNETLLGAVINNVSEAMETLTRIREEMVPVPGSVNGVNALGLVVFSMCFGFVIGNMKEQGQALREFFDSLNEAIMRLVAVIMWYAPLGILFLIAGKIVEMEDMGVIGGQLAMYTVTVIVGLLIHAVIVLPLLYFLVTRKNPWVFIGGLLQALITALGTSSSSATLPITFKCLEENNGVDKRITRFVLPVGATINMDGTALYEALAAIFIAQVNNFDLNFGQIITISITATAASIGAAGIPQAGLVTMVIVLTSVGLPTDDITLIIAVDWFLDRLRTTTNVLGDSLGAGIVEHLSRHELKNRDVEMGNSVIEENEMKKPYQLIAQDNEPEKPVADSETKM
notes: also called EAA1_MOUSE

What follows are binders tested against T1, APP-TAP-AICD (human, UniProt P05067 18-695) (assay: streptavidin purification of APP-TAP-AICD from brain homogenate; iTRAQ 116/114, transgenic mouse 75 vs control mouse 72; MALDI-TOF/TOF;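 also: relative protein abundance in the transgenic versus control pull-down, limited to proteins with high quality scores and above-average enrichment, without full normalization across the whole measurement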).
Source text: Shown are all proteins that have high quality scores and are enriched above average in the m75 sample. Purified bait protein is given underlined. Other already known interaction partners of AICD or putatively biologically relevant proteins are given in bold. As full normalization over the entire measurement was not possible through the GPS explorer software suite, this conservative estimate had to be taken for determining the enriched vs. the non-enriched proteins. […] Ranking is in order of abundance ratio.

Binder	iTRAQ ratio
B1	4.04
B2	3.99
B3	3.98
B4	3.98
B5	3.9
B6	3.82
B7	3.81
B8	3.77
B9	3.76
B10	3.51
B11	3.39
B12	3.22

Each binder was assayed against T1, APP-TAP-AICD (assay: streptavidin purification of APP-TAP-AICD from brain homogenate; LTQ-FT semiquantitative method, transgenic mouse 75 vs control mouse 72).

Binder	probability that this protein is enriched
B13	1
